Results published in the Immune Epitope Database (IEDB).
One block for each sequence: values may come before it.

Experiments:
HLA-A*03:01 [1] = assay: IEDB peptide-MHC binding, purified MHC/competitive/fluorescence; ≥ and ≤ were set here for values at or beyond the usual limits of such assays; conditions: source organism: Zaire ebolavirus
HLA-A*24:02 = assay: as above; conditions: source organism: Zaire ebolavirus
HLA-A*11:01 [2] = assay: as above; conditions: source organism: Zaire ebolavirus
HLA-A*02:01 [3] = assay: as above; conditions: source organism: Zaire ebolavirus
HLA-B*15:01 [4] = assay: as above; conditions: source organism: Zaire ebolavirus
HLA-A*01:01 = assay: IEDB peptide-MHC binding, purified MHC/direct/fluorescence; filed as Kd, often an IC50 or EC50 that approximates it; ≥ and ≤ were set here for values at or beyond the usual limits of such assays; conditions: source organism: Mycobacterium tuberculosis
HLA-A*29:02 [5] = assay: as above; conditions: source organism: Mycobacterium tuberculosis str. Haarlem
HLA-A*02:19 = assay: IEDB peptide-MHC binding, purified MHC/competitive/fluorescence; filed as Kd, often an IC50 or EC50 that approximates it; ≥ and ≤ were set here for values at or beyond the usual limits of such assays; conditions: source organism: Human immunodeficiency virus 1
HLA-A*02:01 [6] = assay: as above; conditions: source organism: Human immunodeficiency virus 1
HLA-A*69:01 = assay: as above; conditions: source organism: Human immunodeficiency virus 1
HLA-A*02:11 = assay: as above; conditions: source organism: Human immunodeficiency virus 1
HLA-A*29:02 [7] = assay: as above; conditions: source organism: Vibrio cholerae NCTC 8457
HLA-B*57:01 = assay: IEDB peptide-MHC binding, purified MHC/direct/fluorescence; filed as Kd, often an IC50 or EC50 that approximates it; ≥ and ≤ were set here for values at or beyond the usual limits of such assays; conditions: source organism: Camelpox virus CMS
HLA-B*15:17 = assay: as above
HLA-B*58:01 = assay: as above; conditions: source organism: Camelpox virus CMS
HLA-C*05:01 = assay: as above; conditions: source organism: Myxoma virus
HLA-A*03:01 [8] = assay: IEDB peptide-MHC binding, purified MHC/competitive/fluorescence; filed as Kd, often an IC50 or EC50 that approximates it; ≥ and ≤ were set here for values at or beyond the usual limits of such assays; conditions: source organism: Escherichia coli 536
HLA-A*31:01 = assay: as above
HLA-B*15:01 [9] = assay: as above; conditions: source organism: Escherichia coli 536
HLA-A*03:01 [10] = assay: IEDB peptide-MHC binding, purified MHC/direct/fluorescence; filed as Kd, often an IC50 or EC50 that approximates it; ≥ and ≤ were set here for values at or beyond the usual limits of such assays; conditions: source organism: Vibrio vulnificus YJ016
HLA-A*11:01 [11] = assay: as above; conditions: source organism: Vibrio vulnificus YJ016

Sequence: AIGLAWIPY
IC50 (HLA-A*03:01 [1]): 1540 nM
IC50 (HLA-A*24:02): ≥ 166000 nM
IC50 (HLA-A*11:01 [2]): 61400 nM
IC50 (HLA-A*02:01 [3]): ≥ 245000 nM
IC50 (HLA-B*15:01 [4]): 1460 nM

Sequence: PTAIYTLEY
Kd (HLA-A*01:01): 9.2 nM
Kd (HLA-A*29:02 [5]): 6 nM

Sequence: ELADQLIHL
Kd (HLA-A*02:19): 6.75 nM
Kd (HLA-A*02:01 [6]): 1160 nM
Kd (HLA-A*69:01): ≤ 1 nM
Kd (HLA-A*02:11): 26.2 nM

Sequence: VQQGIVRQR
IC50 (HLA-A*03:01 [1]): ≥ 160000 nM
IC50 (HLA-A*11:01 [2]): 8370 nM

Sequence: VMADFDLEM
Kd (HLA-A*29:02 [7]): ≤ 0.1 nM

Sequence: ISIPRSVGF
Kd (HLA-B*57:01): 85.9 nM
Kd (HLA-B*15:17; source organism: Camelpox virus CMS): ≤ 1 nM
Kd (HLA-B*58:01): 30.3 nM

Sequence: FPSVFINPV
Kd (HLA-C*05:01): ≥ 20000 nM

Kd (HLA-A*03:01 [8]): 135 nM
Kd (HLA-A*31:01; source organism: Escherichia coli 536): 900 nM
Kd (HLA-B*15:01 [9]): ≥ 20000 nM
Sequence: KLIAVPHTK

Sequence: ATGFPFFDR
Kd (HLA-A*31:01; source organism: Vibrio vulnificus YJ016): 2.35 nM
Kd (HLA-A*03:01 [10]): ≥ 20000 nM
Kd (HLA-A*11:01 [11]): 1.1 nM

Sequence: FSLGQGVKF
Kd (HLA-B*15:17; source organism: Shigella flexneri): 1.9 nM
